The values below come from PMC5365251 (2017).

For this assay, the target named is T1, LAIR-1 ITIM phosphopeptide (PEG28-ITIM) (Mus musculus).
T1 chain: {Biotin-PEG28′}-DLQEVT[pY]IQLDHH
The assay is described as follows: SPR.

A word on the Kd: it is the equilibrium constant for the complex coming apart. Read a high Kd as a looser complex.

Non-standard residues stand in square brackets, D forms with d. Primed or numbered codes have the meaning given here. No end group written: not given here. *: point of attachment. PEG28′ = (PEG)28 spacer, 28 polyethylene glycol repeats; Biotin = O=C1N[C@H]2[C@H](CS[C@H]2CCCCC(=O)*)N1; pY = N[C@@H](Cc1ccc(OP(=O)(O)O)cc1)C(=O)O

B1: SHP-1 (protein)
chain: not shown
Molecule B1 gave a Kd of 9.38 µM.
